Where “and” joins values, the source holds several entries; their conditions need not be identical. Identical values can stand only once.

The test has as its target recombinant RB47 (r-RB47), containing only the four RNA recognition motif domains, histidine tag fus (Chlamydomonas reinhardtii). Description: cell-based or functional assay.

For the substance “recombinant RB60 (r-RB60), histidine tag fusion expressed in E. coli (enzyme)”, the RNA binding activity of r-RB47 (gel mobility-shift assay) after incubation with GSSG and r-RB60 was 5 fold and 6 fold.

The values are drawn from patent publication EP1772519A1.
